# Assay results reported in US20180086841A1 (Merck Sharp & Dohme, published 2018).
# Numbering of substitutions follows the chain as printed.
# T1: His9G-tagged cynomolgus CD27 recombinant protein (cynomolgus, limits assumed)
# T1 construct: In-house, transient transfection of HEK293 cells; also called Cyno CD27/His
# T1 chain: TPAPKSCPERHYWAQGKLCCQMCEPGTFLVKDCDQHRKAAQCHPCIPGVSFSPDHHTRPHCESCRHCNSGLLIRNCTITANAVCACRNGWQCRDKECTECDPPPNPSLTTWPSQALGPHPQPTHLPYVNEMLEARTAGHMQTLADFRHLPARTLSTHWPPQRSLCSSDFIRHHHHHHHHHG
# B1: hCD27.131A VH9VL9 huIgG1 (antibody, V domains shown)
# VH: EIQLVQSGAEVKKPGASVKVSCKASGYTFTNYGMNWVRQAPGQGLKWMGWINTNTGEPTYAEEFKGRFTFTLDTSASTAYMELSSLRSEDTAVYYCAREGDAMDYWGQGTTVTVSS
# VL: DIQLTQSPSTLSASVGDRVTITCSASSSVSYMHWYQQKPGKAPKRWIYDTSKLASGVPARFSGSGSGTDYTLTISSLQPEDFATYYCQQWNSYPFTFGQGTKLEIK
# B2: hCD27.131A VH7VL8 huIgG1 (antibody, V domains shown)
# VH: B1 VH with V20I, R38K, S77T, M81L, L83I
# VL: EIVLTQSPATLSASPGERVTLSCSASSSVSYMHWYQQKPGQAPKRWIYDTSKLASGVPARFSGSGSGTDYSLTISSMEPEDFAVYYCQQWNSYPFTFGQGTKLEIK
# B3: hCD27.131A VH8VL7 huIgG1 (antibody, V domains shown)
# VH: B1 VH with R38K, A76I, S88N
# VL: B2 VL with A13L, V19A, D69S, M77L, V84T
# B4: hCD27.131A VH7VL7 huIgG1 (antibody, V domains shown)
# VH: B1 VH with V20I, R38K, S77T, M81L, L83I
# VL: B2 VL with A13L, V19A, D69S, M77L, V84T
# B5: hCD27.131A VH6VL7 huIgG1 (antibody, V domains shown)
# VH: B1 VH with R38K, A76I
# VL: B2 VL with A13L, V19A, D69S, M77L, V84T
# B6: hCD27.131A VH8VL6 huIgG1 (antibody, V domains shown)
# VH: B1 VH with R38K, A76I, S88N
# VL: B2 VL with A13L, V19A, M77L
# B7: hCD27.131A VH8VL8 huIgG1 (antibody, V domains shown)
# VH: B1 VH with R38K, A76I, S88N
# VL: B2 VL
# B8: hCD27.131A VH6VL8 huIgG1 (antibody, V domains shown)
# VH: B1 VH with R38K, A76I
# VL: B2 VL
# B9: hCD27.131A VH7VL6 huIgG1 (antibody, V domains shown)
# VH: B1 VH with V20I, R38K, S77T, M81L, L83I
# VL: B2 VL with A13L, V19A, M77L
# B10: hCD27.131A VH9VL9 huIgG4 (antibody, V domains shown)
# VH: B1 VH
# VL: B1 VL
# B11: hCD27.131A VH7VL8 huIgG4 (antibody, V domains shown)
# VH: B1 VH with V20I, R38K, S77T, M81L, L83I
# VL: B2 VL
# B12: hCD27.131A VH8VL6 huIgG4 (antibody, V domains shown)
# VH: B1 VH with R38K, A76I, S88N
# VL: B2 VL with A13L, V19A, M77L
# B13: hCD27.131A VH8VL7 huIgG4 (antibody, V domains shown)
# VH: B1 VH with R38K, A76I, S88N
# VL: B2 VL with A13L, V19A, D69S, M77L, V84T
# B14: hCD27.131A VH8VL8 huIgG4 (antibody, V domains shown)
# VH: B1 VH with R38K, A76I, S88N
# VL: B2 VL
# Target: T2, human CD27 (human, UniProt P26842 21-260)
# T2 construct: also called hCD27; HsCD27
# Test: flow cytometry on primary T cells
row,EC50 relative to 131AVH6VL6-hIgG1,Binder
1,≤ 10 % above the EC50 of 131AVH6VL6-hIgG1,B1
2,≤ 10 % above the EC50 of 131AVH6VL6-hIgG1,B2
3,≤ 10 % above the EC50 of 131AVH6VL6-hIgG1,B3
4,≤ 10 % above the EC50 of 131AVH6VL6-hIgG1,B4
5,≤ 10 % above the EC50 of 131AVH6VL6-hIgG1,B5
6,≤ 10 % above the EC50 of 131AVH6VL6-hIgG1,B6
7,≤ 10 % above the EC50 of 131AVH6VL6-hIgG1,B7
8,≤ 10 % above the EC50 of 131AVH6VL6-hIgG1,B8
9,≤ 10 % above the EC50 of 131AVH6VL6-hIgG1,B9

# Target: T2, human CD27
# Test: cell ELISA on transfected CHO cells
# Procedure: (§1) Purified antibodies were assayed for binding to human CD27 expressing CHOK1 cells using a cell-based ELISA format. Human CD27 expressing CHOK1 cells were plated in 96-well tissue-culture plates in 50 μl of DMEM/F12, 10% BCS (bovine calf serum) (CHO-K1 media). Cells were plated at either 2×10⁴ cells/well two days prior to the assay or 4×10⁴ cells/well one day prior to the assay. Media was removed from the wells prior to the assay followed by incubation of mAb in 100 μL fresh culture medium at a starting concentration of 10 μg/mL and 8 step 1:5 serial dilutions (hIgG4 antibodies) or starting concentration of 50 μg/mL and 8 step 1:5 serial dilutions (hIgG1 antibodies). The antibodies were incubated for 30-60 minutes at room temperature and washed 3 times with PBS/0.05% Tween 20 using a cell ELISA washing protocol on the Biotek EL405x Select CW plate washer.
row,fold EC50 against 131AVH6VL6-hIgG1,Binder
1,≤ 2 fold,B1
2,≤ 2 fold,B10
3,≤ 2 fold,B2
4,≤ 2 fold,B3
5,≤ 2 fold,B4
6,≤ 2 fold,B11
7,≤ 2 fold,B5
8,≤ 2 fold,B6
9,≤ 2 fold,B7
10,≤ 2 fold,B8
11,≤ 2 fold,B12
12,≤ 2 fold,B9
13,≤ 2 fold,B13
14,≤ 2 fold,B14

# Target: T2, human CD27
# Test: cell ELISA on human CD27 CHOK1 cells, hIgG1
# Procedure: as §1
row,EC50,Binder
1,111 pM,B1
2,144 pM,B2
3,262 pM,B3
4,207 pM,B4
5,130 pM,B5
6,298 pM,B6
7,145 pM,B7
8,131 pM,B8
9,162 pM,B9

# Target: T2, human CD27
# Test: cell ELISA on human CD27 CHOK1 cells, hIgG4
# Procedure: as §1
row,EC50,Binder
1,130 pM,B10
2,86 pM,B11
3,97 pM,B12
4,88 pM,B13
5,129 pM,B14

# Target: T2, human CD27
# Test: flow cytometry MFI, CD4+ T cells of human PBMC, N=2 donors
# Procedure: (§2) Labeled cells were washed by re-suspending them in 150 ul of staining buffer (SB) followed by centrifugation at 300 g for 5 minutes. Cells were then resuspended in 100 ul of SB containing primary anti-CD27 antibodies at various concentrations, incubated in the dark at 4° C. for 30 minutes, followed by washing and centrifugation steps as previously described. […] Cells were incubated for 30 minutes at 4° C. in the dark, followed by washing and centrifugation steps. Next, cells were stained with a cocktail of phenotypic antibodies for surface markers (CD3, CD4, CD8, CD11b) and incubated for 30 minutes at 4° C. in the dark, followed by washing and centrifugation steps. […] Samples were acquired in a LSR-Fortessa flow cytometer (BD Biosciences) using the high throughput sampler and data analyzed by FlowJo software (Tree Star Inc).
row,EC50,Binder
1,77.4 pM,B1
2,118 pM,B2
3,115 pM,B3
4,113 pM,B4
5,124 pM,B5
6,124 pM,B6
7,135 pM,B7
8,126 pM,B8
9,128 pM,B9

# Target: T2, human CD27
# Test: flow cytometry MFI, CD8+ T cells of human PBMC, N=2 donors
# Procedure: as §2
row,EC50,Binder
1,72.1 pM,B1
2,118 pM,B2
3,110 pM,B3
4,111 pM,B4
5,110 pM,B5
6,113 pM,B6
7,131 pM,B7
8,124 pM,B8
9,127 pM,B9

# Target: T3, His9G-tagged human CD27 recombinant protein (human, UniProt P26842 21-191)
# T3 construct: In-house, transient transfection of HEK293 cells; also called Human CD27/His
# Test: SPR Biacore 4000, antibody captured on anti-human Fc, His9G-tagged CD27 injected, 1:1 fit;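 note: Double-referenced SPR (blank anti-Fc surface and buffer injection subtracted), KD derived from association and dissociation rate constants, with human and cynomolgus CD27 as analytes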
# Source text: (§3) Flow cell spots modified with anti-human Fc antibody but lacking CD27 antibodies were used as reference. […] The chip surface was regenerated with a 30 second injection of 3M MgCl₂ after each injection cycle.
# (§4) Data were double referenced by subtracting the response from a blank surface and that from a buffer injection and used for analyzing the rate constant of association (kₐ) and dissociation (kd), and the equilibrium dissociation constant KD. The resulting data sets were fitted with a Langmuir 1:1 binding model using the Biacore 4000 BIAevaluation software, version 1.0 (GE/Biacore).
row,Kd,Binder
1,62200 pM,B1
2,104000 pM,B10
3,44900 pM,B2
4,63300 pM,B3
5,38900 pM,B4
6,58500 pM,B11
7,71700 pM,B5
8,64400 pM,B6
9,61000 pM,B7
10,68200 pM,B8
11,132000 pM,B12
12,41300 pM,B9
13,89300 pM,B13
14,110000 pM,B14

# Target: T1, His9G-tagged cynomolgus CD27 …
# Test: as above
# Source text: as §3, §4
row,Kd,Binder
1,105000 pM,B1
2,72900 pM,B10
3,36500 pM,B2
4,44100 pM,B3
5,31700 pM,B4
6,40100 pM,B11
7,41900 pM,B5
8,46600 pM,B6
9,32300 pM,B7
10,56500 pM,B8
11,59700 pM,B12
12,34800 pM,B9
13,76800 pM,B13
14,96700 pM,B14
